B1: Translocated intimin receptor Tir (Escherichia coli O127:H6 (strain E2348/69 / EPEC)), B7UM99 (parent)
chain: MPIGNLGNNVNGNHLIPPAPPLPSQTDGAARGGTGHLISSTGALGSRSLFSPLRNSMADSVDSRDIPGLPTNPSRLAAATSETCLLGGFEVLHDKGPLDILNTQIGPSAFRVEVQADGTHAAIGEKNGLEVSVTLSPQEWSSLQSIDTEGKNRFVFTGGRGGSGHPMVTVASDIAEARTKILAKLDPDNHGGRQPKDVDTRSVGVGSASGIDDGVVSETHTSTTNSSVRSDPKFWVSVGAIAAGLAGLAATGIAQALALTPEPDDPTTTDPDQAANAAESATKDQLTQEAFKNPENQKVNIDANGNAIPSGELKDDIVEQIAQQAKEAGEVARQQAVESNAQAQQRYEDQHARRQEELQLSSGIGYGLSSALIVAGGIGAGVTTALHRRNQPAEQTTTTTTHTVVQQQTGGNTPAQGGTDATRAEDASLNRRDSQGSVASTHWSDSSSEVVNPYAEVGGARNSLSAHQPEEHIYDEVAADPGYSVIQNFSGSGPVTGRLIGTPGQGIQSTYALLANSGGLRLGMGGLTSGGESAVSSVNAAPTPGPVRFV
partner: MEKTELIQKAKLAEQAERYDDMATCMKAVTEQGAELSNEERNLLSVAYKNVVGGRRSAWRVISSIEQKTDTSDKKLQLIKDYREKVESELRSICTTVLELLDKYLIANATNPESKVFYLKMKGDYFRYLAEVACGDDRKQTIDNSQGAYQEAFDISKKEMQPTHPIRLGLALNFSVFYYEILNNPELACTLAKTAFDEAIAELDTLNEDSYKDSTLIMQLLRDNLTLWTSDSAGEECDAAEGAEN

Variants of: B1
Details: with 1433t_human YWHAQ

Variant | effect of a mutation on the interaction
S465A | with no effect
S51A | with no effect
S434A | with no effect

— IntAct's records for PubMed 16367866
